# Data taken from patent US20140087995A1 (published 2014).
# Numbered stars: 1 amine (or outer) side, 2 acyl side, 3 side chain; on linkers, the order of the positions; unused ones are H or OH. Bridge positions count the residues as written; N and C are the ends. Side chains are listed from the residue outwards. Ends that are not written are not given here. * marks the point of attachment. C20 diacid = O=C(O)CCCCCCCCCCCCCCCCCCC(=O)*; γGlu = O=C(O)[C@H](CCC(=O)[*:2])N[*:1]
# T1: human amylin receptor (amylin 3(a) receptor: human calcitonin receptor with RAMP-3) (human, UniProt P30988 25-474; O60896 24-148)
# T1 construct: whole, on cells; also called hAmylin-R; hAmylinR
# T1 sequence (looked up) 1: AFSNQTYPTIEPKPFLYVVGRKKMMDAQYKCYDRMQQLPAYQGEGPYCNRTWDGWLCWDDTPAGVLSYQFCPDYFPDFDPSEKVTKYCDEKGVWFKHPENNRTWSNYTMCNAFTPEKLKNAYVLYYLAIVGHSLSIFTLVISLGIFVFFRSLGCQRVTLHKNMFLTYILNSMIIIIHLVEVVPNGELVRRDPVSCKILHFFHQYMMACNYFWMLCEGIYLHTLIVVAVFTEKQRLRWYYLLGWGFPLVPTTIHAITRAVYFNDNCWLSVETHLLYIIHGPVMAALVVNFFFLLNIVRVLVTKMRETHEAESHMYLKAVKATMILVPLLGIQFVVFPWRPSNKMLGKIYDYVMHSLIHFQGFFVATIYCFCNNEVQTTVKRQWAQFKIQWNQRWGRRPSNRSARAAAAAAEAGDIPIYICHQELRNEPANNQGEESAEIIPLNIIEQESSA
# T1 sequence (looked up) 2: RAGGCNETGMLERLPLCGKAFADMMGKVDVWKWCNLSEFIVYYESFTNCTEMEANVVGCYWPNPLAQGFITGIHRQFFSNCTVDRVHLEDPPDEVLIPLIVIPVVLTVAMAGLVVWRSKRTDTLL
# B1: N^ε1-[(4S)-4-carboxy-4-[[(4S)-4-carboxy-4-(19-carboxynonadecanoylamino)butanoyl]amino]butanoyl]-[Asp14,Arg17,Pro22,Pro26,Asp35]-h-amylin (peptide)
# peptide: K([γGlu-γGlu-C20 diacid])CNTATCATQRLADFLRHSSNPFGAPLSSTNVGSDTY-NH2
# modifications: disulfide 2-7; N-terminus assumed
# SMILES: CC(C)C[C@H](NC(=O)[C@H](CCCNC(=N)N)NC(=O)[C@H](CCC(N)=O)NC(=O)[C@@H](NC(=O)[C@H](C)NC(=O)[C@@H]1CSSC[C@H](NC(=O)[C@@H](N)CCCCNC(=O)CC[C@H](NC(=O)CC[C@H](NC(=O)CCCCCCCCCCCCCCCCCCC(=O)O)C(=O)O)C(=O)O)C(=O)N[C@@H](CC(N)=O)C(=O)N[C@@H]([C@@H](C)O)C(=O)N[C@@H](C)C(=O)N[C@@H]([C@@H](C)O)C(=O)N1)[C@@H](C)O)C(=O)N[C@@H](C)C(=O)N[C@@H](CC(=O)O)C(=O)N[C@@H](Cc1ccccc1)C(=O)N[C@@H](CC(C)C)C(=O)N[C@@H](CCCNC(=N)N)C(=O)N[C@@H](Cc1c[nH]cn1)C(=O)N[C@@H](CO)C(=O)N[C@@H](CO)C(=O)N[C@@H](CC(N)=O)C(=O)N1CCC[C@H]1C(=O)N[C@@H](Cc1ccccc1)C(=O)NCC(=O)N[C@@H](C)C(=O)N1CCC[C@H]1C(=O)N[C@@H](CC(C)C)C(=O)N[C@@H](CO)C(=O)N[C@@H](CO)C(=O)N[C@H](C(=O)N[C@@H](CC(N)=O)C(=O)N[C@H](C(=O)NCC(=O)N[C@@H](CO)C(=O)N[C@@H](CC(=O)O)C(=O)N[C@H](C(=O)N[C@@H](Cc1ccc(O)cc1)C(N)=O)[C@@H](C)O)C(C)C)[C@@H](C)O
# notes: also called compound 3
# B2: N^ε1-[(4S)-4-carboxy-4-[[(4S)-4-carboxy-4-(19-carboxynonadecanoylamino)butanoyl]amino]butanoyl]-[Glu14,Arg17,Pro21,Pro27,Arg34]-h-amylin (peptide)
# peptide: K([γGlu-γGlu-C20 diacid])CNTATCATQRLAEFLRHSSPNFGAIPSSTNVGRNTY-NH2
# modifications: disulfide 2-7; N-terminus assumed
# SMILES: CC[C@H](C)[C@H](NC(=O)[C@H](C)NC(=O)CNC(=O)[C@H](Cc1ccccc1)NC(=O)[C@H](CC(N)=O)NC(=O)[C@@H]1CCCN1C(=O)[C@H](CO)NC(=O)[C@H](CO)NC(=O)[C@H](Cc1c[nH]cn1)NC(=O)[C@H](CCCNC(=N)N)NC(=O)[C@H](CC(C)C)NC(=O)[C@H](Cc1ccccc1)NC(=O)[C@H](CCC(=O)O)NC(=O)[C@H](C)NC(=O)[C@H](CC(C)C)NC(=O)[C@H](CCCNC(=N)N)NC(=O)[C@H](CCC(N)=O)NC(=O)[C@@H](NC(=O)[C@H](C)NC(=O)[C@@H]1CSSC[C@H](NC(=O)[C@@H](N)CCCCNC(=O)CC[C@H](NC(=O)CC[C@H](NC(=O)CCCCCCCCCCCCCCCCCCC(=O)O)C(=O)O)C(=O)O)C(=O)N[C@@H](CC(N)=O)C(=O)N[C@@H]([C@@H](C)O)C(=O)N[C@@H](C)C(=O)N[C@@H]([C@@H](C)O)C(=O)N1)[C@@H](C)O)C(=O)N1CCC[C@H]1C(=O)N[C@@H](CO)C(=O)N[C@@H](CO)C(=O)N[C@H](C(=O)N[C@@H](CC(N)=O)C(=O)N[C@H](C(=O)NCC(=O)N[C@@H](CCCNC(=N)N)C(=O)N[C@@H](CC(N)=O)C(=O)N[C@H](C(=O)N[C@@H](Cc1ccc(O)cc1)C(N)=O)[C@@H](C)O)C(C)C)[C@@H](C)O
# notes: also called 88; compound 88
# B3: N^ε1-[(4S)-4-carboxy-4-[[(4S)-4-carboxy-4-(19-carboxynonadecanoylamino)butanoyl]amino]butanoyl]-[Glu14,Arg17,Pro21,Pro27,Arg35]-h-amylin (peptide)
# peptide: K([γGlu-γGlu-C20 diacid])CNTATCATQRLAEFLRHSSPNFGAIPSSTNVGSRTY-NH2
# modifications: disulfide 2-7; N-terminus assumed
# SMILES: CC[C@H](C)[C@H](NC(=O)[C@H](C)NC(=O)CNC(=O)[C@H](Cc1ccccc1)NC(=O)[C@H](CC(N)=O)NC(=O)[C@@H]1CCCN1C(=O)[C@H](CO)NC(=O)[C@H](CO)NC(=O)[C@H](Cc1c[nH]cn1)NC(=O)[C@H](CCCNC(=N)N)NC(=O)[C@H](CC(C)C)NC(=O)[C@H](Cc1ccccc1)NC(=O)[C@H](CCC(=O)O)NC(=O)[C@H](C)NC(=O)[C@H](CC(C)C)NC(=O)[C@H](CCCNC(=N)N)NC(=O)[C@H](CCC(N)=O)NC(=O)[C@@H](NC(=O)[C@H](C)NC(=O)[C@@H]1CSSC[C@H](NC(=O)[C@@H](N)CCCCNC(=O)CC[C@H](NC(=O)CC[C@H](NC(=O)CCCCCCCCCCCCCCCCCCC(=O)O)C(=O)O)C(=O)O)C(=O)N[C@@H](CC(N)=O)C(=O)N[C@@H]([C@@H](C)O)C(=O)N[C@@H](C)C(=O)N[C@@H]([C@@H](C)O)C(=O)N1)[C@@H](C)O)C(=O)N1CCC[C@H]1C(=O)N[C@@H](CO)C(=O)N[C@@H](CO)C(=O)N[C@H](C(=O)N[C@@H](CC(N)=O)C(=O)N[C@H](C(=O)NCC(=O)N[C@@H](CO)C(=O)N[C@@H](CCCNC(=N)N)C(=O)N[C@H](C(=O)N[C@@H](Cc1ccc(O)cc1)C(N)=O)[C@@H](C)O)C(C)C)[C@@H](C)O
# notes: also called 89; compound 89
# B4: N^ε1-[(4S)-4-carboxy-4-[[(4S)-4-carboxy-4-(19-carboxynonadecanoylamino)butanoyl]amino]butanoyl]-[Glu14,Arg17,Pro21,Pro27,His34]-h-amylin (peptide)
# peptide: K([γGlu-γGlu-C20 diacid])CNTATCATQRLAEFLRHSSPNFGAIPSSTNVGHNTY-NH2
# modifications: disulfide 2-7; N-terminus assumed
# SMILES: CC[C@H](C)[C@H](NC(=O)[C@H](C)NC(=O)CNC(=O)[C@H](Cc1ccccc1)NC(=O)[C@H](CC(N)=O)NC(=O)[C@@H]1CCCN1C(=O)[C@H](CO)NC(=O)[C@H](CO)NC(=O)[C@H](Cc1c[nH]cn1)NC(=O)[C@H](CCCNC(=N)N)NC(=O)[C@H](CC(C)C)NC(=O)[C@H](Cc1ccccc1)NC(=O)[C@H](CCC(=O)O)NC(=O)[C@H](C)NC(=O)[C@H](CC(C)C)NC(=O)[C@H](CCCNC(=N)N)NC(=O)[C@H](CCC(N)=O)NC(=O)[C@@H](NC(=O)[C@H](C)NC(=O)[C@@H]1CSSC[C@H](NC(=O)[C@@H](N)CCCCNC(=O)CC[C@H](NC(=O)CC[C@H](NC(=O)CCCCCCCCCCCCCCCCCCC(=O)O)C(=O)O)C(=O)O)C(=O)N[C@@H](CC(N)=O)C(=O)N[C@@H]([C@@H](C)O)C(=O)N[C@@H](C)C(=O)N[C@@H]([C@@H](C)O)C(=O)N1)[C@@H](C)O)C(=O)N1CCC[C@H]1C(=O)N[C@@H](CO)C(=O)N[C@@H](CO)C(=O)N[C@H](C(=O)N[C@@H](CC(N)=O)C(=O)N[C@H](C(=O)NCC(=O)N[C@@H](Cc1c[nH]cn1)C(=O)N[C@@H](CC(N)=O)C(=O)N[C@H](C(=O)N[C@@H](Cc1ccc(O)cc1)C(N)=O)[C@@H](C)O)C(C)C)[C@@H](C)O
# notes: also called 87; compound 87
# B5: N^ε1-[(4S)-4-carboxy-4-[[(4S)-4-carboxy-4-(19-carboxynonadecanoylamino)butanoyl]amino]butanoyl]-[Glu14,Arg17,Pro21,Pro27,Pro37]-h-amylin (peptide)
# peptide: K([γGlu-γGlu-C20 diacid])CNTATCATQRLAEFLRHSSPNFGAIPSSTNVGSNTP-NH2
# modifications: disulfide 2-7; N-terminus assumed
# SMILES: CC[C@H](C)[C@H](NC(=O)[C@H](C)NC(=O)CNC(=O)[C@H](Cc1ccccc1)NC(=O)[C@H](CC(N)=O)NC(=O)[C@@H]1CCCN1C(=O)[C@H](CO)NC(=O)[C@H](CO)NC(=O)[C@H](Cc1c[nH]cn1)NC(=O)[C@H](CCCNC(=N)N)NC(=O)[C@H](CC(C)C)NC(=O)[C@H](Cc1ccccc1)NC(=O)[C@H](CCC(=O)O)NC(=O)[C@H](C)NC(=O)[C@H](CC(C)C)NC(=O)[C@H](CCCNC(=N)N)NC(=O)[C@H](CCC(N)=O)NC(=O)[C@@H](NC(=O)[C@H](C)NC(=O)[C@@H]1CSSC[C@H](NC(=O)[C@@H](N)CCCCNC(=O)CC[C@H](NC(=O)CC[C@H](NC(=O)CCCCCCCCCCCCCCCCCCC(=O)O)C(=O)O)C(=O)O)C(=O)N[C@@H](CC(N)=O)C(=O)N[C@@H]([C@@H](C)O)C(=O)N[C@@H](C)C(=O)N[C@@H]([C@@H](C)O)C(=O)N1)[C@@H](C)O)C(=O)N1CCC[C@H]1C(=O)N[C@@H](CO)C(=O)N[C@@H](CO)C(=O)N[C@H](C(=O)N[C@@H](CC(N)=O)C(=O)N[C@H](C(=O)NCC(=O)N[C@@H](CO)C(=O)N[C@@H](CC(N)=O)C(=O)N[C@H](C(=O)N1CCC[C@H]1C(N)=O)[C@@H](C)O)C(C)C)[C@@H](C)O
# notes: also called 13; compound 13
# B6: N^ε1-[(4S)-4-carboxy-4-[[(4S)-4-carboxy-4-(19-carboxynonadecanoylamino)butanoyl]amino]butanoyl]-[His14,Arg17,Pro21,Pro27]-h-amylin (peptide)
# peptide: K([γGlu-γGlu-C20 diacid])CNTATCATQRLAHFLRHSSPNFGAIPSSTNVGSNTY-NH2
# modifications: disulfide 2-7; N-terminus assumed
# SMILES: CC[C@H](C)[C@H](NC(=O)[C@H](C)NC(=O)CNC(=O)[C@H](Cc1ccccc1)NC(=O)[C@H](CC(N)=O)NC(=O)[C@@H]1CCCN1C(=O)[C@H](CO)NC(=O)[C@H](CO)NC(=O)[C@H](Cc1c[nH]cn1)NC(=O)[C@H](CCCNC(=N)N)NC(=O)[C@H](CC(C)C)NC(=O)[C@H](Cc1ccccc1)NC(=O)[C@H](Cc1c[nH]cn1)NC(=O)[C@H](C)NC(=O)[C@H](CC(C)C)NC(=O)[C@H](CCCNC(=N)N)NC(=O)[C@H](CCC(N)=O)NC(=O)[C@@H](NC(=O)[C@H](C)NC(=O)[C@@H]1CSSC[C@H](NC(=O)[C@@H](N)CCCCNC(=O)CC[C@H](NC(=O)CC[C@H](NC(=O)CCCCCCCCCCCCCCCCCCC(=O)O)C(=O)O)C(=O)O)C(=O)N[C@@H](CC(N)=O)C(=O)N[C@@H]([C@@H](C)O)C(=O)N[C@@H](C)C(=O)N[C@@H]([C@@H](C)O)C(=O)N1)[C@@H](C)O)C(=O)N1CCC[C@H]1C(=O)N[C@@H](CO)C(=O)N[C@@H](CO)C(=O)N[C@H](C(=O)N[C@@H](CC(N)=O)C(=O)N[C@H](C(=O)NCC(=O)N[C@@H](CO)C(=O)N[C@@H](CC(N)=O)C(=O)N[C@H](C(=O)N[C@@H](Cc1ccc(O)cc1)C(N)=O)[C@@H](C)O)C(C)C)[C@@H](C)O
# notes: also called 92; compound 92
# Target: T1, human amylin receptor (amylin 3(a) …)
# Experiment: SPA displacement of 125I-rat amylin, hAmylin 3(a) receptor membranes
# In short: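 One-site competition analysis of SPA counts yielded IC₅₀ as a measure of affinity. Membranes were at 35 ng/μL final; incubation was 120 min at 25° C, pH 7.4.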
row,IC50 [nM],Binder
1,1.13,B1
2,0.75,B2
3,1.16,B3
4,0.633,B4
5,0.264,B5
6,0.179,B6
